The values below come from patent US20240076406A1, “SINGLE DOMAIN ANTIBODIES TARGETING CA-IX AS WELL AS COMPOSITIONS COMPRISING SAME” (National Research Council of Canada, priority 2021, published 2024).

Experiment [1] deals with T1, purified hCA-IX ECD dimer (Homo sapiens, UniProt Q16790).
T1 construct: in vitro enzyme activity assay using purified hCA-IX ECD dimer
The experiment in a line: In vitro rhCA-IX enzyme activity inhibition (4Mu-Ac hydrolysis). Format: biochemical. The settings on record: for IC50: 4Mu-Ac substrate; for inhibition of hCA-IX enzyme activity, in words: hCA-IX dimer, 4Mu-Ac hydrolysis. The procedure: In vitro rhCA-IX enzyme activity inhibition. In order to examine the functional consequence of the binding of the two sdCA9-VHH antibodies to hCA-IX ECD, antibodies were tested in an in vitro enzyme activity assay using purified hCA-IX ECD dimer and 4-Methylumbelliferyl acetate (4Mu-Ac) as substrate.

The next experiment concerns the target human CA-IX (Homo sapiens, UniProt Q16790). Briefly: ELISA species cross reactivity, human CA-IX. The settings on record: 500 nM sdCA9-VHH. It counts as binding. As for the experimental part: (§1) Binding above background was measured in an ELISA assay for the binding of 500 nM of sdCA9-VHH antibodies to human CA-II, CA-IV, CA-IX, CA-XII and CA-XIV (isoform cross reactivity, upper panel), then CA-IX for mouse, human, cynomolgus monkey and dog (species cross reactivity, lower panel). (sdCA9-1-VHH ( ? ) and sdCA9-2-VHH ( ? )
(§2) Cross reactivity and CA-IX specificity. Binding specificity and species cross reactivity of two sdAb were tested in an ELISA assay using purified proteins for human, mouse, cynomolgus monkey and dog CA-IX.

A further experiment has as its target T2, dimeric CA-IX (Homo sapiens, UniProt Q16790).
T2 construct: to the dimeric extracellular domain (ECD) of hCA-IX
Briefly: SPR binding affinity, VHH format, dimeric CA-IX. The settings on record: SPR data (FIG. 3A); monomer or dimer not specified. The procedure: FIG. 3A is a graph showing the binding kinetics determined by surface plasmon resonance (SPR) for 3 CA-IX single domain antibodies (sdCA9-1, -2, -3-VHH) to the dimeric extracellular domain (ECD) of hCA-IX.
In vitro binding affinity/SPR. To evaluate the binding affinity (KD) of the VHH only format of the […] single domain antibodies, CA-IX monomer and dimer were immobilized on SA sensor chip (GE Healthcare) and serial dilutions of the sdAbs were injected over the surface (FIG. 3A). […] The two single domain antibodies sdCA9-1-VHH and sdCA9-2-VHH were selected for further characterizations.
In general terms: In SPR one partner is held on a chip, and binding of the other changes the refractive index at the surface.

For experiment [2], the system named is 67NR^hCA-IX derived spheroids. The experiment in a line: Spheroid growth inhibition, 67NR^hCA-IX. It counts as cell-based, mouse. The settings on record: for spheroid growth, different concentrations: monitored for 8 days, compared with 67NR derived spheroids. From the text:
(§3) Spheroid growth inhibition.

In the next experiment the test system is cyno CA-IX. Briefly: ELISA species cross reactivity, cynomolgus monkey CA-IX. It counts as binding. The settings on record: 500 nM sdCA9-VHH. The procedure:
as §1, §2
For orientation: In an ELISA, binding on a coated surface is turned into a signal by an enzyme label.

In another experiment the target is dog CA-IX (Canis lupus familiaris, UniProt A0A8I3NCN1). The experiment in a line: ELISA species cross reactivity, dog CA-IX. Format: binding. The following applies: 500 nM sdCA9-VHH. As for the experimental part: as §1, §2
Sequence of dog CA-IX (A0A8I3NCN1 38-461): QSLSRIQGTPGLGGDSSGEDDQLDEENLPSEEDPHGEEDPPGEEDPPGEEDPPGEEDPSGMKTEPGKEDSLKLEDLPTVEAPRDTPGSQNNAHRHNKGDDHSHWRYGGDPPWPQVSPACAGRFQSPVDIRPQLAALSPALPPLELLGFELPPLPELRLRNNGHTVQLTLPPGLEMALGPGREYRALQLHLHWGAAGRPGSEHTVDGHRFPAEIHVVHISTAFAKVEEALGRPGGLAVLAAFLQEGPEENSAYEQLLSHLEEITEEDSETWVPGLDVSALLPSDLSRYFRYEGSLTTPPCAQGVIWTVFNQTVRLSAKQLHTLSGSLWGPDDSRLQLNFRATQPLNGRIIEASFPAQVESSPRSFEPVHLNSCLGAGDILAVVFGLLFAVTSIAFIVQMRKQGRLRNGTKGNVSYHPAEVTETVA
The target in another experiment is mouse CA-IX (Mus musculus, UniProt Q8VHB5). Briefly: ELISA species cross reactivity, mouse CA-IX. It counts as binding. The following applies: 500 nM sdCA9-VHH. The procedure:
as §1, §2

The subject of experiment [3] is hCA-IX negative parental 67NR spheroids. Briefly: Spheroid growth inhibition, parental 67NR. Format: cell-based, mouse. The settings on record: hCA-IX negative cells.
Excerpt: as §3

Setting [4] is: [inhibitor] vs. normalized response - variable slope.
[5] abbreviates: [inhibitor] vs. normalized response - variable slope, read-out: IC50 (best fit value).

Read-outs that look alike come from different tables or passages of the source.

Sequence of mouse CA-IX (Q8VHB5 32-437): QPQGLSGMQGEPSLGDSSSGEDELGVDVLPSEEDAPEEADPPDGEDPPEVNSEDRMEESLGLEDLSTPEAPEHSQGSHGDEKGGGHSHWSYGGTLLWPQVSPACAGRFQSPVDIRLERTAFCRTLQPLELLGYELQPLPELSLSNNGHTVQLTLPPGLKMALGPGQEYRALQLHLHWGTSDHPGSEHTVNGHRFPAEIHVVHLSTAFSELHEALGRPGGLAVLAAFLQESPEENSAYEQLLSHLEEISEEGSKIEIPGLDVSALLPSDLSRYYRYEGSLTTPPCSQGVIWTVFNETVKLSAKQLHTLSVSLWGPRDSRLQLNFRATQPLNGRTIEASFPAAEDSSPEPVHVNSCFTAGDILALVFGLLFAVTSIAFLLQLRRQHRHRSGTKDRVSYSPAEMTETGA

B1: sdCA9-2-VHH: llama single domain antibody (VHH) binding CA-IX catalytic domain, amino acid sequence SEQ ID NO: 5 (protein)
VHH: QVKLEESGGDLVQPGGSLRLSCAASGFTLDYYAIGWFRQAPGKEREGVSCFSSVDGSTYYADSVKGRFTISRDNAKNMVYLQMNSLKPEDTAIYYCAAELYGELGVATVQAMCRLTTPGGDYWGQGTQVTVSS
modifications: Amino acid sequence for sdCA9-2-VHH
For B1, the “HillSlope (best fit value)” value in experiment [1] (setting [4]) was −0.2974. Besides, the IC50 – broadly, the concentration needed to halve the response being measured – in experiment [1] (setting [5]) was 48.4 nM. The “inhibition of hCA-IX enzyme activity, in words” value in experiment [1] is listed as “inhibited the hCA-IX enzyme activity to similar levels achieved by SMI U104”. Further, the “binding to human CA-IX” value with human CA-IX is recorded as “selectively binds”. In addition, in the experiment with dimeric CA-IX, the “binding to CA-IX by SPR, in words” value is “bind with high affinity”. Further, the “growth of spheroids over time” value in experiment [2] (100 μg/mL) is reported as “specifically inhibits the growth of 67NR^hCA-IX spheroids over time”. Also, the “spheroid growth, different concentrations” value in experiment [2] is recorded as “inhibited spheroid growth in a dose-dependent manner”. For the same molecule, the “binding to cyno CA-IX” value in the experiment on cyno CA-IX is “selectively binds”.

B2: sdCA9-1-VHH: llama single domain antibody (VHH) binding CA-IX catalytic domain, amino acid sequence SEQ ID NO: 1 (protein)
VHH: QVQLVESGGGLVQAGGSLRLSCAASGFTFDDWAIGWFRQAPGKEREGVSCISKRHGTTHYADSVKGRFTISSDNAKNTVYLRMNGLKPEDTAVYYCAASSWGSCTVATMRDVDRYDYDYWGQGTQVTVSS
modifications: Amino acid sequence for sdCA9-1- VHH
For the molecule B2, in experiment [1] (setting [4]), the “HillSlope (best fit value)” value is recorded as −0.1194. The concentration for half-maximal inhibition (IC50) in experiment [1] (setting [5]) is 111 nM; in experiment [1] (hCA-IX-ECD dimer, read-out: IC50 values) it was around 100 nM. Moreover, the “inhibition of hCA-IX enzyme activity, in words” value in experiment [1] is “only partially”. For the same molecule, in the experiment with human CA-IX, the “binding to human CA-IX” value was “binds”. Further, the “binding to CA-IX by SPR, in words” value in the experiment with dimeric CA-IX is given as “bind with high affinity”. Besides, the “binding to dog CA-IX” value with dog CA-IX was “binds”. Besides, the “binding to mouse CA-IX” value with mouse CA-IX is “binds”. For the same molecule, the “effect on parental 67NR spheroids” value in experiment [3] is listed as “hCA-IX non-specific phenotype”. Also, the “spheroid growth, different concentrations” value in experiment [2] is on record as “seemed not to be specific”. For the same molecule, the “binding to cyno CA-IX” value in the experiment on cyno CA-IX is listed as “binds”.

B3: sdCA9-3-VHH: llama single domain antibody (VHH) binding CA-IX, amino acid sequence SEQ ID NO: 9 (protein)
VHH: QVQLVESGGGLVQAGDSLRLSCAASGGTFSRYGMGWFRQAPGKEREFVAAISGTGLNTYYMDSVKGRFTISRDNAENTVYLQMNSLKPEDTAVYYCARDRGGVEYDYWGQGTQVTVSS
modifications: A 118 amino acid sequence for CA9-3-VHH
Turning to B3, in the experiment with dimeric CA-IX, the “binding to CA-IX by SPR, in words” value is on record as “binds with high affinity but less so than the other two”.
